Results reported in publication PMC3212559, “Large-Scale Protein-Protein Interaction Analysis in Arabidopsis Mesophyll Protoplasts by Split Firefly Luciferase Complementation” (PLoS ONE, 2011).

What was measured:
Assay in all cases: split reporter (BiFC, NanoBiT); SFLC in living Arabidopsis mesophyll protoplasts: Aux/IAA-FLucN or MYB30-FLucN co-expressed with ARFCTD-FLucC or Aux/IAA-FLucC for 6 hr; 10 µg of each construct, 2×10^4 cells, 96-well plate, D-luciferin; relative activity standardised against ARF5CTD-FLucC + IAA28-FLucN
Conditions in all cases: partners not purified
[1] = biological target: T1, ARF18 C-terminal domain (CTD)-FLucC (Arabidopsis, UniProt Q9C5W9 489-602)
T1 construct: Arabidopsis auxin response factor 18, C-terminal dimerization domain (CTD); In the ARF-ARF tests the same CTD stood both as ARFCTD-FLucC and as ARFCTD-FLucN; one molecule for both; also called ARF18CTD-FLucC; ARFCTD-FLucC; source: Arabidopsis mesophyll protoplasts, transfected, in living cells; not shown: FLucC (firefly luciferase aa 394-550)
T1 sequence (looked up): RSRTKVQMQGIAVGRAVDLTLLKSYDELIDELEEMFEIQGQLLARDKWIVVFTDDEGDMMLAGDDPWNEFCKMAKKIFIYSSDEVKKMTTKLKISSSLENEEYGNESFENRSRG

IAA1-FLucC = biological target: T2, IAA1-FLucC (Arabidopsis, UniProt P49677 1-168)
T2 construct: Arabidopsis Aux/IAA protein IAA1; also called Aux/IAA-FLucC; source: Arabidopsis mesophyll protoplasts, transfected, in living cells; not shown: FLucC (firefly luciferase aa 394-550)
T2 sequence (looked up): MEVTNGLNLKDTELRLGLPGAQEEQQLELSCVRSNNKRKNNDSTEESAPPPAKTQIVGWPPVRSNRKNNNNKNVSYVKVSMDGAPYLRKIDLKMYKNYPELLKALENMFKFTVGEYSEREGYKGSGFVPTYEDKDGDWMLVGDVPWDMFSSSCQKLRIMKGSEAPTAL

IAA7-FLucC = biological target: T3, IAA7-FLucC (Arabidopsis, UniProt Q38825 1-243)
T3 construct: Arabidopsis Aux/IAA protein IAA7; also called Aux/IAA-FLucC; source: Arabidopsis mesophyll protoplasts, transfected, in living cells; not shown: FLucC (firefly luciferase aa 394-550)
T3 sequence (looked up): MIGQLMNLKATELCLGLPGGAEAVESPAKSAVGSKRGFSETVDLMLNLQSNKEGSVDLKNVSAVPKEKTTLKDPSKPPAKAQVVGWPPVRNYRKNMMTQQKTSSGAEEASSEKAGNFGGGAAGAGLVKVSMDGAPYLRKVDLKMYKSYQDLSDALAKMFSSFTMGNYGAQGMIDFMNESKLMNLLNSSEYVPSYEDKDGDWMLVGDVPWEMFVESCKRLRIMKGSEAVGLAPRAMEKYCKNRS

IAA14-FLucC = biological target: T4, IAA14-FLucC (Arabidopsis, UniProt Q38832 1-228)
T4 construct: Arabidopsis Aux/IAA protein IAA14; also called Aux/IAA-FLucC; source: Arabidopsis mesophyll protoplasts, transfected, in living cells; not shown: FLucC (firefly luciferase aa 394-550)
T4 sequence (looked up): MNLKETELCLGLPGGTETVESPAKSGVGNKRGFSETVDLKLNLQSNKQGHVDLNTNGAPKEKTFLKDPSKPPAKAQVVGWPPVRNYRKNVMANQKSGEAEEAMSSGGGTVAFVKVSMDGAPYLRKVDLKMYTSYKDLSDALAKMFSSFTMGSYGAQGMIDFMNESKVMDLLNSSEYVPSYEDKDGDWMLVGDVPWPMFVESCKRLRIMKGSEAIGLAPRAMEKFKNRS

IAA17-FLucC = biological target: T5, IAA17-FLucC (Arabidopsis, UniProt P93830 1-229)
T5 construct: Arabidopsis Aux/IAA protein IAA17; also called Aux/IAA-FLucC; source: Arabidopsis mesophyll protoplasts, transfected, in living cells; not shown: FLucC (firefly luciferase aa 394-550)
T5 sequence (P93830 whole entry, the tested form may be a part): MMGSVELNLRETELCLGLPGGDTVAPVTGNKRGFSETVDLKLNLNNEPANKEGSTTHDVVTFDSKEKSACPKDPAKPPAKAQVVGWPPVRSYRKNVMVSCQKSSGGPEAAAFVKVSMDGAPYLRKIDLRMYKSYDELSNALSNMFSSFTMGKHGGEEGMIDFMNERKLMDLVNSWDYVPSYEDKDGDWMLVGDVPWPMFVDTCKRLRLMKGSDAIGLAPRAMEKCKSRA

IAA18-FLucC = biological target: T6, IAA18-FLucC (Arabidopsis, UniProt O24408 1-267)
T6 construct: Arabidopsis Aux/IAA protein IAA18; also called Aux/IAA-FLucC; source: Arabidopsis mesophyll protoplasts, transfected, in living cells; not shown: FLucC (firefly luciferase aa 394-550)
T6 sequence (looked up): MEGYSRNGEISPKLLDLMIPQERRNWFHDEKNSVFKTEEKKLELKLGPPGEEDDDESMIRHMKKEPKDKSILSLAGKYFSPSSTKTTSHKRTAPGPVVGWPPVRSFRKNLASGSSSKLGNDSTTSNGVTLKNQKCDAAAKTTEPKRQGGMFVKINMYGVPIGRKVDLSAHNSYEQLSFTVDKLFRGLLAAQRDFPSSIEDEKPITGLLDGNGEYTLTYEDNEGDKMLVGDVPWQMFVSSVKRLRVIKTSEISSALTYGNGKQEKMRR

Measured: relative luciferase activity (standardised against ARF5CTD-FLucC + IAA28-FLucN)

B1: MYB30-FLucN (natural protein, UniProt Q9SCU7 1-323, looked up)
chain: MVRPPCCDKGGVKKGPWTPEEDIILVTYIQEHGPGNWRAVPTNTGLLRCSKSCRLRWTNYLRPGIKRGNFTEHEEKMIVHLQALLGNRWAAIASYLPQRTDNDIKNYWNTHLKKKLNKVNQDSHQELDRSSLSSSPSSSSANSNSNISRGQWERRLQTDIHLAKKALSEALSPAVAPIITSTVTTTSSSAESRRSTSSASGFLRTQETSTTYASSTENIAKLLKGWVKNSPKTQNSADQIASTEVKEVIKSDDGKECAGAFQSFSEFDHSYQQAGVSPDHETKPDITGCCSNQSQWSLFEKWLFEDSGGQIGDILLDENTNFF
notes: transcription factor MYB30, the unrelated protein used as negative control; source: Arabidopsis mesophyll protoplasts, transfected, in living cells; not shown: FLucN (firefly luciferase aa 1-398)
< 0.1: all assays above
